Measurements from patent US20230374151A1 (GlaxoSmithKline, published 2023).
Where a chain is given by its changes, count along the chain named. Values joined by “and” are separate entries in the source; they are usually repeats but may differ in a detail not shown here. Identical values can stand only once.

Key:
[1] = target: T1, STnMUC1 peptide, biotinylated; assay: SPR (Biacore T200): biotinylated STnMUC1 peptide (35-1) captured on CAP chip, scFv as analyte
T1 construct: also called STn peptide; 35-1

[2] = target: T2, TnMUC1 peptide (fully glycosylated), biotinylated; assay: SPR (Biacore T200): biotinylated TnMUC1 peptide batch 65-1 captured on CAP chip, scFv as analyte, 1:1 fit, average
T2 construct: Two batches (36-2 and 65-1) of the same peptide; also called 36-2; 7-36-2
Protocol: (§1) Biotin CAPture Reagent was captured onto the active and reference flow cells for 300 seconds at 2 μl/min. The biotinylated peptides were diluted in BIAcore Running Buffer (as described above) and captured onto the active flow cell only, at a flow rate of 10 μl/min to obtain the capture level calculated in the equation detailed above.
(§2) The humanised anti-TnMUC1 scFv proteins were passed over the reference and active flow cells at 500, 125, 31.25, 7.8, 1.9, 0 nM for binding to TnMUC1 and MUC1 peptides with a 300 second association followed by a 900 seconds dissociation with BIAcore Running Buffer at a flow rate of 30 μl/min.
(§3) BIAcore T200 Evaluation Software v3.0 was used to analyse the data. The data obtained has been fitted to a 1:1 binding model with the Rmax parameter set to local. As this is a capture experiment, a local Rmax parameter would be truly reflective as the protein is recaptured every time and theoretically surface is slightly different at each recapture, possibly producing slightly different capture each time. Kinetic Parameters (KD, kd and kₐ) were calculated for all the humanised anti-TnMUC1 scFv proteins.

[3] = target: T3, TnMUC1 peptide 1 (partially glycosylated), biotinylated; assay: SPR (Biacore T200): biotinylated TnMUC1 peptide 1 (96-1) captured on CAP chip, scFv as analyte, 1:1 fit, average
T3 construct: also called 96-1; 32A
Protocol: as §1, §2, §3

[4] = target: T2, TnMUC1 peptide (fully glycosylated), …; assay: SPR (Biacore T200), peptide 36-2 on CAP chip, scFv as analyte, 1:1 fit; average, restated in nM
Protocol: as §1, §2, §3

[5] = target: T4, MUC1 peptide (non-glycosylated), biotinylated (N-terminal Biotin-PEG2; C-terminal amide); assay: SPR (Biacore T200), biotinylated peptide on CAP chip, scFv as analyte
T4 construct: also called 36-4; 7-36-4
T4 peptide: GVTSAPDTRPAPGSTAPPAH

[6] = target: T2, TnMUC1 peptide (fully glycosylated), …; assay: SPR (Biacore T200), peptide 36-2 on CAP chip, scFv as analyte, 1:1 fit; average
Protocol: as §1, §2, §3

[7] = target: T2, TnMUC1 peptide (fully glycosylated), …; assay: SPR (Biacore T200), peptide 36-2 on CAP chip, scFv as analyte, 1:1 fit; single run
Protocol: as §1, §2, §3

[8] = target: T1, STnMUC1 peptide, biotinylated; assay: SPR (Biacore T200): biotinylated STnMUC1 peptide (35-1) captured on CAP chip, scFv as analyte, 1:1 fit, average
[9] = target: T4, MUC1 peptide (non-glycosylated), …; assay: Octet BLI, biotinylated peptide on streptavidin sensors
Protocol: Biotinylated MUC1 peptide (7-36-4) and TnMUC1 peptide (7-36-2) were diluted to 10 μg/ml in Octet Running Buffer (1×PBSF) and loaded onto Octet SA (streptavidin) sensors. The positive control proteins were tested in the Octet assay at a single concentration of 500 nM. All humanised anti-Tn MUC1 scFv expression supernatants were assayed neat.
Data was analysed using the data acquisition software fortéBIO version 8.0.2.5 and the data analysis software fortéBIO version 8.0.2.3.

[10] = target: T1, STnMUC1 peptide, biotinylated; assay: SPR (Biacore T200), STnMUC1 peptide on CAP chip, scFv as analyte
Protocol: The CAP chip (from the Biotin CAPture kit) was docked into BIAcore T200 instrument to hydrate overnight, as per manufacturer instructions. When the chip is docked (for the first time or after storage), the surface of the sensor chip needs to be conditioned with 3×1 minute injections of Regeneration Solution (from the Biotin CAPture kit). Regeneration Solution was prepared by mixing 3 parts of Regeneration Stock 1 (8M Guanidine-HCl) with 1-part Regeneration Stock 2 (1M NaOH). Both the reference and active flow cells of the sensor chip were conditioned with 3×60 second injections of Regeneration Solution at a flow rate of 10 μl/min.
as §1

B1: humanised anti-TnMUC1 scFv protein 11P6 (89A), L0-H5 (scFv)
scFv: DIVMTQSPDSLAVSLGERATINCKSSQSLLNSGDQKNYLTWYQQKPGQPPKLLIYWASTRESGVPDRFSGSGSGTDFTLTISSLQAEDVAVYYCQNDYSYPLTFGQGTKLEIKGGGGSGGGGSGGGGSGGGGSQVQLVQSGAEVKKPGSSVKVSCKASGYTFTDHAIHWVRQAPGQGLEWIGHFSPGNTDIKYNDKFKGRATLTVDRSTSTAYMELSSLRSEDTAVYFCKTSTFFFDYWGQGTTVTVSSAAAHHHHHH
notes: Supernatant of construct 6D6 in the Octet assay; purified 11P6 elsewhere; also called 6D6
Kd [1]: 199 nM
Kd [2]: 48.6 nM
koff [2]: 0.00136 s⁻¹
kon [2]: 28000 M⁻¹ s⁻¹
Kd [3]: 60.3 nM
koff [3]: 0.00135 s⁻¹
kon [3]: 22500 M⁻¹ s⁻¹
Kd [4]: 26.7 nM
binding result [5]: no binding (tested: 500 nM)
Kd [6]: 26.7 nM
koff [6]: 0.00137 s⁻¹
kon [6]: 51500 M⁻¹ s⁻¹
Kd [7]: 25.7 nM and 27.6 nM
koff [7]: 0.00138 s⁻¹ and 0.00135 s⁻¹
kon [7]: 53800 M⁻¹ s⁻¹ and 49100 M⁻¹ s⁻¹
Kd [8]: 199 nM
koff [8]: 0.000435 s⁻¹
kon [8]: 2200 M⁻¹ s⁻¹

B2: humanised anti-TnMUC1 scFv L2-H1 (construct 6D14) (scFv)
scFv: B1 scFv with Y55F, I181M, A201V, L203I, V205A, R207K, F228Y, K230A, T231R
binding result [9]: no binding (tested: neat supernatant)

B3: humanised anti-TnMUC1 scFv protein 13P18 (19A), L2-H5 (scFv)
scFv: B1 scFv with Y55F
notes: Supernatant of construct 6D18 in the Octet assay; purified 13P18 elsewhere. scFv of CAR MB025; also called 6D18
Kd [1]: 196 nM
Kd [2]: 40.7 nM
koff [2]: 0.00127 s⁻¹
Kd [3]: 51.1 nM
koff [3]: 0.00131 s⁻¹
Kd [4]: 70.9 nM
binding result [5]: no binding (tested: 500 nM)
fold lower affinity than the murine 5E5 scFv protein [10]: ~10 fold
Kd [6]: 70.9 nM
koff [6]: 0.0013 s⁻¹
kon [6]: 18400 M⁻¹ s⁻¹
Kd [7]: 67.6 nM and 74.2 nM
koff [7]: 0.00131 s⁻¹ and 0.00129 s⁻¹
kon [7]: 19400 M⁻¹ s⁻¹ and 17400 M⁻¹ s⁻¹
Kd [8]: 196 nM
koff [8]: 0.000423 s⁻¹
kon [8]: 2160 M⁻¹ s⁻¹

B4: humanised anti-TnMUC1 scFv L0-H4 (construct 6D5) (scFv)
scFv: B1 scFv with I181M, A201V, L203I, V205A, R207K, K230A, T231R
binding result [9]: no binding (tested: neat supernatant)

B5: humanised anti-TnMUC1 scFv L1-H1 (construct 6D8) (scFv)
scFv: B1 scFv with D1E, I2L, I181M, A201V, L203I, V205A, R207K, F228Y, K230A, T231R
binding result [9]: no binding (tested: neat supernatant)

B6: humanised anti-TnMUC1 scFv L3-H2 (construct 6D21) (scFv)
scFv: B1 scFv with D1E, I2L, Y55F, F228Y, K230A, T231R
binding result [9]: no binding (tested: neat supernatant)

B7: humanised anti-TnMUC1 scFv protein 9P1 (88A), VL-VH humanised control (scFv)
scFv: B1 scFv with L110V, P147T, G177A, I181M, A201V, T209M, V226M, F228Y, T244M
notes: Control scFv designed from a humanised antibody of WO2015/159076 (10D2 is said to come from Ab2, so 10D1 by implication from Ab1); Neat supernatant of construct 10D1 in the Octet assay; purified protein 9P1 in Biacore and flow cytometry; also called 10D1
Kd [4]: 23 nM
Kd [6]: 23 nM
koff [6]: 0.00156 s⁻¹
kon [6]: 67800 M⁻¹ s⁻¹
binding result [9]: no binding (tested: neat supernatant)
Kd [7]: 22.8 nM and 23.3 nM
koff [7]: 0.00157 s⁻¹ and 0.00153 s⁻¹
kon [7]: 68800 M⁻¹ s⁻¹ and 65900 M⁻¹ s⁻¹

B8: humanised anti-TnMUC1 scFv L1-H2 (construct 6D9) (scFv)
scFv: B1 scFv with D1E, I2L, F228Y, K230A, T231R
binding result [9]: no binding (tested: neat supernatant)

B9: humanised anti-TnMUC1 scFv L3-H3 (construct 6D22) (scFv)
scFv: B1 scFv with D1E, I2L, Y55F, I181M, A201V, L203I, V205A, R207K, F228Y
binding result [9]: no binding (tested: neat supernatant)

B10: humanised anti-TnMUC1 scFv protein 13P24 (77A), L3-H5 (scFv)
scFv: B1 scFv with D1E, I2L, Y55F
notes: Two purification lots (13P24, 28P24); also called 28P24; 6D24
Kd [4]: 46.4 nM
binding result [5]: no binding (tested: 500 nM)
Kd [6]: 46.4 nM
koff [6]: 0.00133 s⁻¹
kon [6]: 28700 M⁻¹ s⁻¹
Kd [7]: 46.4 nM
koff [7]: 0.00133 s⁻¹
kon [7]: 28700 M⁻¹ s⁻¹

B11: humanised anti-TnMUC1 scFv L0-H1 (construct 6D2) (scFv)
scFv: B1 scFv with I181M, A201V, L203I, V205A, R207K, F228Y, K230A, T231R
binding result [9]: no binding (tested: neat supernatant)

B12: humanised anti-TnMUC1 scFv L2-H2 (construct 6D15) (scFv)
scFv: B1 scFv with Y55F, F228Y, K230A, T231R
binding result [9]: no binding (tested: neat supernatant)

B13: humanised anti-TnMUC1 scFv L2-H4 (construct 6D17) (scFv)
scFv: B1 scFv with Y55F, I181M, A201V, L203I, V205A, R207K, K230A, T231R
binding result [9]: no binding (tested: neat supernatant)

B14: humanised anti-TnMUC1 scFv L0-H2 (construct 6D3) (scFv)
scFv: B1 scFv with F228Y, K230A, T231R
binding result [9]: no binding (tested: neat supernatant)

B15: humanised anti-TnMUC1 scFv L3-H4 (construct 6D23) (scFv)
scFv: B1 scFv with D1E, I2L, Y55F, I181M, A201V, L203I, V205A, R207K, K230A, T231R
binding result [9]: no binding (tested: neat supernatant)

B16: humanised anti-TnMUC1 scFv protein 11P12 (94A), L1-H5 (scFv)
scFv: B1 scFv with D1E, I2L
notes: Supernatant of construct 6D12 in the Octet assay; purified 11P12 elsewhere; also called 6D12
Kd [4]: 54 nM
binding result [5]: no binding (tested: 500 nM)
fold lower affinity than the murine 5E5 scFv protein [10]: ~10 fold
Kd [6]: 54.4 nM
koff [6]: 0.00155 s⁻¹
kon [6]: 28400 M⁻¹ s⁻¹
Kd [7]: 53.6 nM and 55.2 nM
koff [7]: 0.00158 s⁻¹ and 0.00151 s⁻¹
kon [7]: 29400 M⁻¹ s⁻¹ and 27300 M⁻¹ s⁻¹

B17: humanised anti-TnMUC1 scFv L3-H1 (construct 6D20) (scFv)
scFv: ELVMTQSPDSLAVSLGERATINCKSSQSLLNSGDQKNYLTWYQQKPGQPPKLLIFWASTRESGVPDRFSGSGSGTDFTLTISSLQAEDVAVYYCQNDYSYPLTFGQGTKLEIKGGGGSGGGGSGGGGSGGGGSQVQLVQSGAEVKKPGSSVKVSCKASGYTFTDHAIHWVRQAPGQGLEWMGHFSPGNTDIKYNDKFKGRVTITADKSTSTAYMELSSLRSEDTAVYYCARSTFFFDYWGQGTTVTVSSAAAHHHHHH
binding result [9]: no binding (tested: neat supernatant)

B18: humanised anti-TnMUC1 scFv H3-L3, VH-VL orientation (construct 6D25) (scFv)
scFv: QVQLVQSGAEVKKPGSSVKVSCKASGYTFTDHAIHWVRQAPGQGLEWMGHFSPGNTDIKYNDKFKGRVTITADKSTSTAYMELSSLRSEDTAVYYCKTSTFFFDYWGQGTTVTVSSGGGGSGGGGSGGGGSGGGGSELVMTQSPDSLAVSLGERATINCKSSQSLLNSGDQKNYLTWYQQKPGQPPKLLIFWASTRESGVPDRFSGSGSGTDFTLTISSLQAEDVAVYYCQNDYSYPLTFGQGTKLEIKAAAHHHHHHH
binding result [9]: no binding (tested: neat supernatant)
